For one data set, the system named is PARP activity. The note with it: various cell lines, DNA damage by hydrogen peroxide, cited from earlier work.
Data set [1] is described as follows: Phase 1 study, serum pharmacokinetics after first dose. The data set is classed as in vivo. The note with it: patients, first dose 0.03-10 mg/kg, monitored for two weeks, FIG. 6A. The source says: (§1) This example describes a multicenter, open-label, first-in-human Phase 1 study evaluating a TIM-3 binding agent (an anti-TIM-3 antibody), in patients with tumors. Specifically the dosage effects in patients with advanced solid tumors treated with a particular TIM-3 binding agent. A TIM-3 binding agent (TSR-022) as described in the present study comprises a humanized monoclonal anti-TIM-3 antibody comprising a heavy chain whose amino acid sequence comprises SEQ ID NO: 3 and a light chain whose amino acid sequence comprises SEQ ID NO:4 are evaluated. This anti-TIM-3 antibody utilizes a human IGHG4*01 heavy chain gene, and a human IGKC*01 kappa light chain gene, as scaffolds. Further, there is a single Ser to Pro point mutation in the hinge region of the IgG4 heavy chain at the canonical S228 position.
The study comprises several parts: dose escalation and cohort expansion. Part 1a of the study (dose escalation) is intended, inter alia, to evaluate the safety, PK, and PDy profile, tolerability and anti-cancer effect of the anti-TIM-3 antibody. […]
After patients received the first dose of TSR-022 at various levels (0.03-10 mg/kg), the TSR-022 concentration in serum was monitored for two weeks and the pharmacokinetic (PK) behaviors were characterized.

Another data set concerns the target T1, TIM-3 (Homo sapiens, UniProt Q8TDQ0).
T1 construct: endogenous in cells; host or cells: circulating CD14+ monocytes in patients' whole blood
As to the kind of experiment: TIM-3 receptor occupancy on circulating CD14+ monocytes by flow cytometry. It is filed as in vivo. The protocol: TIM-3 receptor occupancy (RO) by TSR-022 on circulating CD14^+ monocytes was measured by flow cytometry. Briefly, whole blood samples from patients treated with TSR-022 were stained with anti-CD14, a non-competing anti-TIM-3 antibody (indicating total TIM-3) and a competing anti-TIM-3 antibody (indicating unbound or free TIM-3). TIM-3 occupancy by infused TSR-022 was estimated as the ratio of free TIM-3 on CD14+ cells to the total TIM-3 on CD14+ cells. A decrease in the ratio indicates an increase in TSR-022 bound TIM-3 receptor. To measure binding in the RO assay, whole blood was collected from patients at baseline (Day 1 predose), 48 hours following the first dose (Day 3) and prior to the second dose (Day 15 predose) for the Q2W schedule. […] Samples for occupancy measurement on the Q3W schedule were collected as follows: Day 1 predose, Day 5, Day 15 and Day 22. Ex vivo TSR-022 saturated healthy donor samples (“sat”) as well as controls lacking detection antibodies (“Bkgd”) were included as controls.
FIGS. 7A-7C respectively show receptor occupancy studies of the anti-TIM-3 antibody (TSR-022) administered at doses of 1 mg/kg (FIG. 7A), 3 mg/kg (FIG. 7B), and 10 mg/kg (FIG. 7C) every two weeks (Q2W). All samples were pre-dose, with occupancy measured after a single dose on day 1. The occupancy ratio (free TIM-3:total TIM-3) is determined at various time points (for example, timepoints can include day 1, day 3, day 15, day 22, and day 29). The receptor occupancy is maximal on day 3 across doses of TSR-022.

In data set [2] the test system is advanced or metastatic solid tumors. As to the kind of experiment: Phase 1 dose escalation, best tumor response. The data set is classed as in vivo, human.
Source text: as §1
Patients were included with histologically or cytologically proven advanced (unresectable) or metastatic solid tumor and who had disease progression after treatment with available therapies that are known to confer clinical benefit or who are intolerant to other known treatment(s).
The study comprises several parts: dose escalation and cohort expansion. Part 1a of the study (dose escalation) is intended, inter alia, to evaluate the safety, PK, and PDy profile, tolerability and anti-cancer effect of the anti-TIM-3 antibody. A modified 3+3 design was used for dose escalation at 0.03 mg/kg, 0.1 mg/kg, 0.3 mg/kg, 1.0 mg/kg, 3 mg/kg, and 10 mg/kg and higher every 2 weeks (Q2W) with the dose of the TIM-3 antibody not to exceed 20 mg/kg. […]
The best response observed was also evaluated in efficacy evaluable patients (e.g., patients who received at least two doses and either had at least one post-baseline assessment or had discontinued treatment due to clinical progression prior to post-baseline tumor assessment. Stable disease (5/25 patients) and partial response (1/25 patients at 10 mg/kg) were observed as the best response in patients with rectal, thyroid, neuroendocrine, or head and neck cancer, or with soft tissue sarcoma.

A short description of data set [3]: Phase 1 dose escalation, safety and tolerability. The data set is classed as in vivo.
Procedure: The study comprises several parts: dose escalation and cohort expansion. Part 1a of the study (dose escalation) is intended, inter alia, to evaluate the safety, PK, and PDy profile, tolerability and anti-cancer effect of the anti-TIM-3 antibody. […] Part 1a could also comprise the testing of a “flat” dose, or a specific fixed number of milligrams of antibody (as opposed to the weight based dosing mg/kg). Flat doses could range from 200 mg to 1500 mg of anti-TIM-3 antibody. Part 1b of the study (combination with PD1 dose escalation cohorts) is intended, inter alia, to evaluate the safety, PK, and PDy profile, tolerability and anti-cancer effect of the anti-TIM-3 antibody in combination with an anti-PD-1 antibody wherein the anti-TIM-3 antibody is administered as a dose escalation. […] The anti-PD-1 antibody can be dosed at an approved dose and schedule for a marketed agent and on a weight basis at a dose of 3 or 10 mg/kg Q2W or Q3W or on a flat dose basis of 500 mg antibody Q2W or Q3W by using a modified 3+3 design.
Primary endpoints include determining the safety and tolerability of TSR-022 by Common Terminology Criteria for Adverse Events (CTCAE v4) and to determine the recommended phase 2 dose (RP2D) and schedule for monotherapy and combination with an anti-PD-1 antibody. […]

Usually IC50 stands for the midpoint of a concentration-inhibition curve. For the compound `NC(=O)c1cccc2cn(-c3ccc([C@@H]4CCCNC4)cc3)nc12` [Niraparib, (3S)-3-[4-{7-(aminocarbonyl)-2H-indazol-2-yl}phenyl]piperidine], the IC50 in the data set with PARP activity (read-out: IC50, PARP activity in cells) is approximately 4 nM. For the same compound, in the data set with PARP activity (read-out: inhibitory concentration at 90% of control (IC90), PARP activity in cells), the IC90 was approximately 50 nM.
In the case of “TSR-022: humanized monoclonal anti-TIM-3 IgG4 antibody, heavy chain SEQ ID NO: 3, light chain SEQ ID NO: 4, S228 Ser to Pro hinge mutation”, the “PK behavior, serum concentration versus time” value in data set [1] is listed as “linear PK behavior”. For the same compound, in the data set with TIM-3 (3 mg/kg, single dose on day 1, FIG. 7B), the “day through which maximal occupancy is maintained” value is not below 29 days. Besides, the “maintenance of maximal occupancy” value with TIM-3 (10 mg/kg, through the days of available data, versus 3 mg/kg, FIG. 7C) was “comparable results are obtained”. In addition, the “receptor occupancy compared between regimens” value with TIM-3 (100 mg Q3W versus 3 mg/kg Q2W) was “comparable to 3 mg/kg Q2W”. In addition, the “target coverage in the periphery (receptor occupancy)” value with TIM-3 (100 mg flat dose Q3W, single dose on day 1, FIG. 10) is given as “achieved at 100 mg for the duration of the dosing interval”. The “receptor occupancy (RO)” value in the data set with TIM-3 (300 mg flat dose TSR-022 in combination with 500 mg flat dose TSR-042, FIG. 11) was “high RO can be maintained over the measured time period”. The “mean occupancy ratio (free TIM-3:total TIM-3)” value with TIM-3 (1, 3, 10 mg/kg and flat doses of 100, 300, 1200 mg, over a range of days, FIG. 12) is listed as “high occupancy ratios”. Further, in the data set with TIM-3 (patients, whole blood, FIG. 6B), the “receptor occupancy on peripheral monocytes versus exposure” value is given as “correlate with TSR-022 exposure”. The “day on which receptor occupancy is maximal” value in the data set with TIM-3 (single dose on day 1, across doses 1, 3, 10 mg/kg, FIGS. 7A-7C) stood at 3 days. Further, in data set [2] (efficacy evaluable patients, monotherapy Part 1a, 0.03-10 mg/kg Q2W), the “stable disease as best response” value is given as 5/25. Further, the “partial response as best response” value in data set [2] (efficacy evaluable patients, monotherapy, at 10 mg/kg) is 1/25. Further, the tumor reduction in data set [2] (one patient with metastatic leiomyosarcoma, 3 doses at 10 mg/kg, pending confirmatory imaging) worked out at 32%. In addition, the MTD entry in data set [3] (dose escalation continued to 1.0 mg/kg Q2W) is given as “a MTD has not yet been identified”. Besides, the tolerability result in data set [3] (monotherapy, patients) is listed as “well-tolerated across multiple dose levels”.

The record behind these values is US11926665B2, “Methods of treating cancer with anti-TIM-3 antibodies” (TESARO, INC., priority 2017, dated 2024).
